Tests used:
[1] = biological target: parDMFase large subunit expressed and purified without the small subunit (Paracoccus sp. strain DMF); test: SEC; large subunit purified without the small subunit; data not shown
[2] = biological target: parDMFase α2β2 complex (the 'dimer', 200 kDa) (Paracoccus sp. strain DMF); test: cryo-EM structure; purified parDMFase on ice; data set with 200 mM NaCl, tetramer (α2β2)2 reconstruction at 2.8 Å (initial mixed data set: 3.8 Å); step: dimer of α2β2 dimers

Substance | stoichiometry N [1] | stoichiometry N [2]
parDMFase large subunit expressed and purified without the small subunit (enzyme) | 2 | –
parDMFase α2β2 complex (the 'dimer', 200 kDa) | – | 2
